Source: article PMC11481913, “Rational design of a flavoenzyme for aerobic nicotine catabolism” (mBio, 2024)

Molecular target: the molecule itself
Assay: SEC; Superdex 200 Increase 10/300 GL; molecular weight by elution (Fig. S2)

B1: PnaoΔN30 (residues 31–497) (enzyme, Pseudomonas putida S16, UniProt F8G0P1 31-496, looked up)
chain: IASQLLTLSAPAEAAVKTNVGPSRAGVGYDVIVIGGGFAGVTAAREASRSGLKTLILEGRSRLGGRTFTSKLQNQKVELGGTWVHWTQPNVWTEIMHYGLEVEETVGLANPETVIWVTEDNVKRAPAAEAFEIFGSACNEYYKEARNIYPRPFEPFFERKKLQHVDGLSAADYLEKLPLTREQKDMMDSWLSGNGHNYPETIAYSEIMRWFALSNFNMPTMFDSIARYKIKTGTHSLLEAIMADGNSEVKLSTPVTKVNQDKDKVTVTTEDGVFTASAVIVAVPINTLHDIEYSPKLSAAKVDMGSQRHAGAGVKGYIRVKQNVGNVMTYAPARNKLTPFTSVFTDHVDESGTLLIAFSADPKLIDINDIKAVEKALQPLLPGVEVTASYGYDWNLDPFSKGTWCTYRPNQTTRYLTELQKREGRLFFAGSDMANGWRGFIDGAIENGREVGHQVATYLKRENDNA
notes: Pnao, flavin-dependent pseudooxynicotine oxidase of Pseudomonas putida S16; N-terminal truncation of 30 residues, residues 31-497; Cloned in pET-28a between NcoI and XhoI, which probably gives a C-terminal His6 tag; also called pseudooxynicotine amine oxidase; source: E. coli BL21(DE3), purified (Ni2+-NTA, size-exclusion chromatography)
stoichiometry N: 2
